Experimental data as given in US6077686, “Shc proteins” (Mount Sinai Hospital Corporation, dated 2000).

target: EGFR in living cells (293T cells stimulated with EGF; NIH/3T3 cells transformed by overexpression of the EGFR); test: not given

Row | Molecule | EGF-induced MAPK activity (Gal4-Elk-1 / Gal4-Luc luciferase in 293T cells)
1 | isolated ShcC SH2 domain expressed in cells (HA epitope-tagged SH2 domain) | 50%

target: autophosphorylated EGF-receptor (from lysates of EGF-stimulated A431 cells) (human, UniProt P00533, autophosphorylated on tyrosine (sites not given)); test: binding of GST-PTB to the activated EGFR, normalized to wild type

Row | Molecule | Relative Binding
2 | GST fusion protein of the ShcC PTB domain (wild type) (other) LGPGVTYVVKYLGCIEVLRSMRSLDFSTRTQVTREAISRVCERVPGAKGALKKRKPPSKMLSSILGKSNLQFAGMSISLTISTASLNLRTPDSKQIIANHHMRSISFASGGDPDTTDYVAYVAKDPVNRRACHILECCDGLAQDVIGSIGQAFELRFKQYL | 1
3 | GST-ShcC PTB domain mutant G32R/A136T/C166R (other) LGPRVTYVVKYLGCIEVLRSMRSLDFSTRTQVTREAISRVCERVPGAKGALKKRKPPSKMLSSILGKSNLQFAGMSISLTISTASLNLRTPDSKQIIANHHMRSISFTSGGDPDTTDYVAYVAKDPVNRRACHILECRDGLAQDVIGSIGQAFELRFKQYL | 0.14
4 | GST-ShcC PTB domain mutant G30R/H128Q (other) LRPGVTYVVKYLGCIEVLRSMRSLDFSTRTQVTREAISRVCERVPGAKGALKKRKPPSKMLSSILGKSNLQFAGMSISLTISTASLNLRTPDSKQIIANQHMRSISFASGGDPDTTDYVAYVAKDPVNRRACHILECCDGLAQDVIGSIGQAFELRFKQYL | 1
5 | GST-ShcC PTB domain mutant M130I/S132V (other) LGPGVTYVVKYLGCIEVLRSMRSLDFSTRTQVTREAISRVCERVPGAKGALKKRKPPSKMLSSILGKSNLQFAGMSISLTISTASLNLRTPDSKQIIANHHIRVISFASGGDPDTTDYVAYVAKDPVNRRACHILECCDGLAQDVIGSIGQAFELRFKQYL | 1
6 | GST-ShcC PTB domain mutant T58A (other) LGPGVTYVVKYLGCIEVLRSMRSLDFSTRAQVTREAISRVCERVPGAKGALKKRKPPSKMLSSILGKSNLQFAGMSISLTISTASLNLRTPDSKQIIANHHMRSISFASGGDPDTTDYVAYVAKDPVNRRACHILECCDGLAQDVIGSIGQAFELRFKQYL | 1.2
7 | GST-ShcC PTB domain mutant G32R (other) LGPRVTYVVKYLGCIEVLRSMRSLDFSTRTQVTREAISRVCERVPGAKGALKKRKPPSKMLSSILGKSNLQFAGMSISLTISTASLNLRTPDSKQIIANHHMRSISFASGGDPDTTDYVAYVAKDPVNRRACHILECCDGLAQDVIGSIGQAFELRFKQYL | 0.93
8 | GST-ShcC PTB domain mutant T118S (other) LGPGVTYVVKYLGCIEVLRSMRSLDFSTRTQVTREAISRVCERVPGAKGALKKRKPPSKMLSSILGKSNLQFAGMSISLTISTASLNLRSPDSKQIIANHHMRSISFASGGDPDTTDYVAYVAKDPVNRRACHILECCDGLAQDVIGSIGQAFELRFKQYL | 0.81
9 | GST-ShcC PTB domain mutant A136T (other) LGPGVTYVVKYLGCIEVLRSMRSLDFSTRTQVTREAISRVCERVPGAKGALKKRKPPSKMLSSILGKSNLQFAGMSISLTISTASLNLRTPDSKQIIANHHMRSISFTSGGDPDTTDYVAYVAKDPVNRRACHILECCDGLAQDVIGSIGQAFELRFKQYL | 0.16
10 | GST-ShcC PTB domain mutant A136T/C166R (other) LGPGVTYVVKYLGCIEVLRSMRSLDFSTRTQVTREAISRVCERVPGAKGALKKRKPPSKMLSSILGKSNLQFAGMSISLTISTASLNLRTPDSKQIIANHHMRSISFTSGGDPDTTDYVAYVAKDPVNRRACHILECRDGLAQDVIGSIGQAFELRFKQYL | 0.12
11 | GST-ShcC PTB domain mutant S86C (other) LGPGVTYVVKYLGCIEVLRSMRSLDFSTRTQVTREAISRVCERVPGAKGALKKRKPPCKMLSSILGKSNLQFAGMSISLTISTASLNLRTPDSKQIIANHHMRSISFASGGDPDTTDYVAYVAKDPVNRRACHILECCDGLAQDVIGSIGQAFELRFKQYL | 1.2
12 | GST-ShcC PTB domain mutant G139E/D140N (other) LGPGVTYVVKYLGCIEVLRSMRSLDFSTRTQVTREAISRVCERVPGAKGALKKRKPPSKMLSSILGKSNLQFAGMSISLTISTASLNLRTPDSKQIIANHHMRSISFASGENPDTTDYVAYVAKDPVNRRACHILECCDGLAQDVIGSIGQAFELRFKQYL | 0.073
13 | GST-ShcC PTB domain mutant V36M (other) LGPGVTYMVKYLGCIEVLRSMRSLDFSTRTQVTREAISRVCERVPGAKGALKKRKPPSKMLSSILGKSNLQFAGMSISLTISTASLNLRTPDSKQIIANHHMRSISFASGGDPDTTDYVAYVAKDPVNRRACHILECCDGLAQDVIGSIGQAFELRFKQYL | 1
14 | GST-ShcC PTB domain mutant T111I (other) LGPGVTYVVKYLGCIEVLRSMRSLDFSTRTQVTREAISRVCERVPGAKGALKKRKPPSKMLSSILGKSNLQFAGMSISLTISIASLNLRTPDSKQIIANHHMRSISFASGGDPDTTDYVAYVAKDPVNRRACHILECCDGLAQDVIGSIGQAFELRFKQYL | 1.2
15 | GST-ShcC PTB domain mutant E63G (other) LGPGVTYVVKYLGCIEVLRSMRSLDFSTRTQVTRGAISRVCERVPGAKGALKKRKPPSKMLSSILGKSNLQFAGMSISLTISTASLNLRTPDSKQIIANHHMRSISFASGGDPDTTDYVAYVAKDPVNRRACHILECCDGLAQDVIGSIGQAFELRFKQYL | 0.087
